The target of data set [1] is T1, (His)6-RcsB (Escherichia coli, UniProt P0DMC7 1-216).
T1 sequence: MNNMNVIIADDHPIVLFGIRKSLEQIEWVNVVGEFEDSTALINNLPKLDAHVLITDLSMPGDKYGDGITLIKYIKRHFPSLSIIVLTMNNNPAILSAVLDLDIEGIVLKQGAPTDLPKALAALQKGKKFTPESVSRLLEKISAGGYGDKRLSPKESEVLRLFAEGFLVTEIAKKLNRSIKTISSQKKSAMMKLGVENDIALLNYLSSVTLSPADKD
The data set is described as follows: EMSA. Background: In EMSA bound probe runs differently from free probe, usually more slowly.

The target in data set [2] is T2, MBP-RcsB (Escherichia coli (MG1655 strain), UniProt P0DMC7 1-216).
T2 sequence: T1 sequence
The data set is described as follows: native gel or EMSA.

The target of data set [3] is T3, (His)6-RcsB (Escherichia coli, UniProt P0DMC7 1-216).
T3 sequence: T1 sequence
Description: native gel or EMSA.

Data set [4] deals with the molecule itself.

What is called stoichiometry N is a count of units in the complex or per binding partner.

B1: gadA promoter -101 to +24 (dsDNA)
DNA 1: GTTTATATTATAAAAAGTCGTTTTTCTGCTTAGGATTTTGTTATTTAAATTAAGCCTGTAATGCCTTGCTTCCATTGCGGATAAATCCTACTTTTTTATTGCCTTCAAATAAATTTAAGGAGTTC
DNA 2: GAACTCCTTAAATTTATTTGAAGGCAATAAAAAAGTAGGATTTATCCGCAATGGAAGCAAGGCATTACAGGCTTAATTTAAATAACAAAATCCTAAGCAGAAAAACGACTTTTTATAATATAAAC
In the case of B1, the binding result in data set [1] is “binds”.

B2: MBP-GadE (natural protein)
chain: MIFLMTKDSFLLQGFWQLKDNHEMIKINSLSEIKKVGNKPFKVIIDTYHNHILDEEAIKFLEKLDAERIIVLAPYHISKLKAKAPIYFVSRKESIKNLLEITYGKHLPHKNSQLCFSHNQFKIMQLILKNKNESNITSTLNISQQTLKIQKFNIMYKLKLRRMSDIVTLGITSYF
In the case of B2, the binding result in data set [2] and in data set [3] was “binds” each time. Moreover, the “stoichiometry N” value in data set [4] was 2.

B3: (His)6-GadE (natural protein)
chain: B2 chain
As to B3, the binding result in data set [2] and in data set [3] was “binds” throughout.

Source of the values: publication PMC2887963 (Nucleic Acids Research, 2010).
